Data taken from the nanobody polyreactivity screen of Harvey et al. (2022).

experiment: yeast display, Sf9 membrane polyspecificity reagent, FACS + sequencing; frameworks hold sequencing errors
How it was run: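 Genes from sorted yeast were amplified by colony PCR, read by MiSeq 2 × 250 sequencing and filtered on CDR length. These cells carried a synthetic nanobody library in Saccharomyces cerevisiae BJ5465 and were sorted by FACS into low and high (top ~1%) gates on anti-HA and streptavidin fluorescence. Polyreactivity is labelled according to the gate of origin.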

Question: Which “polyreactivity (PSR sort gate)” value does the source give for “QVQLVESGGGLVQAGGSLRLSCAASGRTFVLYTMGWYRQAPGKERELVAVGSTYYADSVKGRFTISRDNAKNTVYLQMNSLIAEDTAVYYCAADIHWYGYYYWGLGTQVTVSS” here?
Answer: high polyreactivity

Question: For “QVQLVESGGGLVQAGGSLRLSCAASGRTFVLYTMGWYRQAPGKERELVAVGSTYYADSVKGRFTISRDNAKNTVYLQMNSLKPEDTAVYYCNKPGNYVWRRSWDFDYWGQGTQVTVSS”, which “polyreactivity (PSR sort gate)” value is on record?
Answer: high polyreactivity

Question: With “QVQLVESGGGLVQAGGSLRLSCAASGRTFVNNAMGWYRQAPGKERELVAAISRSGGRTYYADSVKGRFTISRDNAKNTVYLQMNSLKPEDTAVYYCAADSSYSRKYDYWGQGTQVTVSS” as the sequence, how does the “polyreactivity (PSR sort gate)” value read?
Answer: low polyreactivity

Question: Which “polyreactivity (PSR sort gate)” value does the source give for “QVQLVESGGGLVQAGGSLRLSCAASGRTFVNNAMGWYRQAPGKERELVAAITRSGGRTYYADSVKGRFTISRDNAKNTVYLQMNSLKPEDTAVYYCATANVRLRHDDYWGQGTQVTVSS” here?
Answer: high polyreactivity

Question: Which “polyreactivity (PSR sort gate)” value does the source give for “QVQLVESGGGLVQAGGSLRLSCAASGRTFVNYTMGWYRQAPGKERELVAAVSWTGGRTYYADSVKGRFTISRDNAKNTVYLQMNSLKPEDTAVYYCATQPEKSGRPAIDPELYDYWGQGTQVTVSS” here?
Answer: low polyreactivity

Question: With “QVQLVESGGGLVQAGGSLRLSCAASGRTFVPNAMGWYRQAPGKERELVAAISDSGGSTYYADSVKGRFTISRDNAKNTVYLQMNSLKPEDTAVYYCATDGTTYVGWEHGFNYWGQGTQVTVSS” as the sequence, how does the “polyreactivity (PSR sort gate)” value read?
Answer: low polyreactivity

Question: For “QVQLVESGGGLVQAGGSLRLSCAASGRTFVPYAMGRYRQAPGKERELVAAISARGSSTYYADSVKGRFTISRDNAKNTVYLQMNSLKPEDTAVYYCNAVGARVASATGMEYWGQGTQVTVSS”, which “polyreactivity (PSR sort gate)” value is on record?
Answer: high polyreactivity

Question: Which “polyreactivity (PSR sort gate)” value does the source give for “QVQLVESGGGLVQAGGSLRLSCAASGRTFVPYAMGWYRQAPGKERELVAAINSGGSTYYADSVKGRFSISRDNAKNTVYLQMNSLKPEDTAVYYCAAEYWNSRFSYAYGYWGQGTQVTVSS” here?
Answer: high polyreactivity

Question: With “QVQLVESGGGLVQAGGSLRLSCAASGRTFVPYAMGWYRQAPGKERELVAAITSSGGSTYYADSVKGRFTISRDNAKNTVYLQMNSLKPEDTAVYYCNALDGTLRTIYDYWGQGTQVTVSS” as the sequence, how does the “polyreactivity (PSR sort gate)” value read?
Answer: high polyreactivity

Question: For “QVQLVESGGGLVQAGGSLRLSCAASGRTFVRNAMGWYRQAPGKERELVAAISSSGGSTYYADSVKGRFTISRDNAKNTVYLQMNSLKPEDTAVYYCAARSAFYYTYRSHYGWGMDYWGQGTQVTVSS”, which “polyreactivity (PSR sort gate)” value is on record?
Answer: high polyreactivity

Question: For “QVQLVESGGGLVQAGGSLRLSCAASGRTFVRNAMGWYRQAPGKERELVAGIRRGGTTNYADSVKGRFTISRDNAKNTVYLQMNSLKPEDTAVYYCNALYRYGWLYAPKYNSWGQGTQVTVSS”, which “polyreactivity (PSR sort gate)” value is on record?
Answer: high polyreactivity

Question: With “QVQLVESGGGLVQAGGSLRLSCAASGRTFVRYAMGRYRQAPGKERELVAAISGDGASTYYADSVKGRFTISRDNAKNTVYLQMNSLKPEDPAVYYCNARSIRRYYYPDYDYWGQGTQVTVSS” as the sequence, how does the “polyreactivity (PSR sort gate)” value read?
Answer: high polyreactivity

Question: Which “polyreactivity (PSR sort gate)” value does the source give for “QVQLVESGGGLVQAGGSLRLSCAASGRTFVRYAMGWYRQAPGKERELVAAISRTGGTTYYADSVKGRFTISRDNAKNTVYLQMNSLKPEDTAVYYCNADPFYKYGYWGQGTKVTVSS” here?
Answer: high polyreactivity

Question: For “QVQLVESGGGLVQAGGSLRLSCAASGRTFVRYAMGWYRQAPGKERELVASIRTGGSTNYADSVKGRFTISRDNAKNTVYLQMNSLKPEDTAVYYCAAPRTYRPWGRMDYWGQGTQVTVSS”, which “polyreactivity (PSR sort gate)” value is on record?
Answer: high polyreactivity

Question: Which “polyreactivity (PSR sort gate)” value does the source give for “QVQLVESGGGLVQAGGSLRLSCAASGRTFVSHAMGWYRQAPGKERELVAAITNGGRTYYADSVKGRFTISRDNAKNTVYLQMNSLKPEDTAVYYCAAYVPTFKDRSRWYGRKYDYWGQGTQVTVSS” here?
Answer: low polyreactivity

Question: Which “polyreactivity (PSR sort gate)” value does the source give for “QVQLVESGGGLVQAGGSLRLSCAASGRTFVSNAMGWYRQAPGKERELVAAISFSGDSTYYADSVKGRFTISRDNAKKTVYLQMNSLKPEDTAVYYCRFYSYWSWLGREYDYWGQGTQVTVSS” here?
Answer: low polyreactivity

Question: For “QVQLVESGGGLVQAGGSLRLSCAASGRTFVSNAMGWYRQAPGKERELVAAISWSGSRTYYADSVKGRFTISRDNAKNTVYLQMNSLKPEDTAVYYCAAAKPKKSRGSAYEYWGQGTQVTVSS”, which “polyreactivity (PSR sort gate)” value is on record?
Answer: high polyreactivity

Question: Which “polyreactivity (PSR sort gate)” value does the source give for “QVQLVESGGGLVQAGGSLRLSCAASGRTFVSNDMGWYRQAPGKERELVATISSGASTYYADSVKGRFTISRDNAKITVYLQMNSLKPEDTAVYYCAAEVLVFGGGYDYWGQGTQVTVSS” here?
Answer: low polyreactivity

Question: With “QVQLVESGGGLVQAGGSLRLSCAASGRTFVSNVMGWYRQAPGKERELVAAINWSGDSTYYADSVKGRFTISRDNAKNTVYLQMNSLKPEDTAVYYCARRNPLGGNEHDYWGQGTQVTVSS” as the sequence, how does the “polyreactivity (PSR sort gate)” value read?
Answer: low polyreactivity

Question: With “QVQLVESGGGLVQAGGSLRLSCAASGRTFVSYTMGWYRQAPGKERELVAAISSGGSTTYADSVKGRFTISRDNAKNTVYLQMNSLKPEDTAVYYCNARYGWSYWSKYDYWGQGTQVTVSS” as the sequence, how does the “polyreactivity (PSR sort gate)” value read?
Answer: high polyreactivity

Question: Which “polyreactivity (PSR sort gate)” value does the source give for “QVQLVESGGGLVQAGGSLRLSCAASGRTFVSYVMGLYRQAPGKERELVAAITWRGGSTYYADSVKGRFTISRDNAKNTVYLQMNSLKPEDTAVYYCNADYRYIWTYWGWTIYDYWGQGTQVTVSS” here?
Answer: high polyreactivity

Question: For “QVQLVESGGGLVQAGGSLRLSCAASGRTFVTNAMGWYRPAPGKERELVPAISSNGGSTYYADSVKGRFTISRDTAKNTVYLQMNSLKPEDTAVYYCNAEGQPLYWWDHGNYWGQGTQVTVSS”, which “polyreactivity (PSR sort gate)” value is on record?
Answer: low polyreactivity

Question: Which “polyreactivity (PSR sort gate)” value does the source give for “QVQLVESGGGLVQAGGSLRLSCAASGRTFVTYAMGWYRQAPGKERELVAGIRRGGSTYYADSVKGRFTISRDNAKNTVYLQMNSLKPDDPAVYDCAKTFYAHRAYTSYTARPYDYWGQGTQVTVSS” here?
Answer: high polyreactivity

Question: Which “polyreactivity (PSR sort gate)” value does the source give for “QVQLVESGGGLVQAGGSLRLSCAASGRTFVTYAMGWYRQAPGKERELVAVITNGGGTYYADSVKGRFTISRDNAKNTVYLQMNSLKPEDTALYYCNNDRYGLRRWVYSYLGGYDYWGQGTQVTVSS” here?
Answer: low polyreactivity

Question: Which “polyreactivity (PSR sort gate)” value does the source give for “QVQLVESGGGLVQAGGSLRLSCAASGRTFVTYVMGWYRQAPGKEREFVAAIRWSGGRTYYADSVKGRFTISRDNAKNTVYLQMNSLKPEDTAVYYCAAVYYDRSYRYEYWGQGTQVTVSS” here?
Answer: high polyreactivity

Question: For “QVQLVESGGGLVQAGGSLRLSCAASGRTFVYNAMGWYRQAPGKERELVAAIDGGGDRTYYADSVKGRFTISRDNAKNTVYLQMTSLNPEDTAVYYCARDPGDTYYYSYPEGDYWGQGTQVTVSS”, which “polyreactivity (PSR sort gate)” value is on record?
Answer: low polyreactivity

Question: Which “polyreactivity (PSR sort gate)” value does the source give for “QVQLVESGGGLVQAGGSLRLSCAASGRTFVYYAMGWYRQAPGKERELVASISSNGGTYYADSVKGRFTISRDNAKNTVYLQMNSLKPEDTAVYYCNAKRVARYQYGASYNYWGQGTQVTVSS” here?
Answer: high polyreactivity

Question: For “QVQLVESGGGLVQAGGSLRLSCAASGRTFVYYAMGWYRQAPGKERELVATITRSGGSTYYADSVKGRFTISRDNAKNTVYLQMNSLKPEDTAVYYCAVLYWRPGYDYWGQGTQVTVSS”, which “polyreactivity (PSR sort gate)” value is on record?
Answer: high polyreactivity

Question: For “QVQLVESGGGLVQAGGSLRLSCAASGRTFVYYAMGWYRQAPGTERELVAAISTGGSTNYADSVKGRFTISRDNAKNSVYLQMNSLKPEDTAVYYCAAQYYISISKYDYWGQGTQVTVSS”, which “polyreactivity (PSR sort gate)” value is on record?
Answer: low polyreactivity

Question: With “QVQLVESGGGLVQAGGSLRLSCAASGRTFVYYAMVWSRQAPGKEREFVAAISRSGGRTSYADSVKGRFTISRDNAKNTVYLQMNSLKPEDTAVYYCAAENRTQPTSREYYWGQGNQVTVSS” as the sequence, how does the “polyreactivity (PSR sort gate)” value read?
Answer: high polyreactivity

Question: For “QVQLVESGGGLVQAGGSLRLSCAASGRTFVYYTRGWYRPAPGKERELVAAISWNGDDTYYADSVKGRFTISRDNAKNTVYLQMNSLKPEDTAVYYCAKESYTDYDTYYYWGQGTQVTVSS”, which “polyreactivity (PSR sort gate)” value is on record?
Answer: low polyreactivity

Question: With “QVQLVESGGGLVQAGGSLRLSCAASGRTFVYYVMGWYRQAPGKERELVAGISRGGSTDYADSVKGRFTISRDNAKNTVYLQMNSLKPEDTAVYYCNRLLRRHLYIFYYWGQGTQVTVSS” as the sequence, how does the “polyreactivity (PSR sort gate)” value read?
Answer: high polyreactivity

Question: For “QVQLVESGGGLVQAGGSLRLSCAASGRTFWGYAMGWYRPAPGKERELVAAISSGGDTTYADSVKGRFTISRDNAKNTVYLQMNSLKPEDTAVFYCAADRWYSRYTRYGYWGQGTQVTVSS”, which “polyreactivity (PSR sort gate)” value is on record?
Answer: low polyreactivity

Question: With “QVQLVESGGGLVQAGGSLRLSCAASGRTFWNYAMGWYRQAPGKERELVAVIRFSDGSTYYADSVKGRFTISRDNAKNTVYLQMKSLKPEDTAVYYCGAKGQRRWGSGFDYWGQGTQVTVSS” as the sequence, how does the “polyreactivity (PSR sort gate)” value read?
Answer: low polyreactivity

Question: Which “polyreactivity (PSR sort gate)” value does the source give for “QVQLVESGGGLVQAGGSLRLSCAASGRTFWPNVMGWYRQAPGKERELVAALTWGDASTYYADSVKGRFTISRDNAKYTVYLQMNSLKPEDTAVYYCAASDYRRTYDYWGQGTQVTVSS” here?
Answer: low polyreactivity

Question: Which “polyreactivity (PSR sort gate)” value does the source give for “QVQLVESGGGLVQAGGSLRLSCAASGRTFWPYAMGWYRQAPGKERELVAAITSDGSTTYADSVTGRFTISRDNAKNTVYLQMNSLTPEDTAVYYCAAYGYYYDQTIPMDYWGQGTQVTVSS” here?
Answer: low polyreactivity

Question: Which “polyreactivity (PSR sort gate)” value does the source give for “QVQLVESGGGLVQAGGSLRLSCAASGRTFWRNAMGWYRPAPGKERELVAVISVRGSSTSYADSVKGRFTISRDNAKNNVYFQMNILKPEDTGVYYCAAGRRYRSVGYGYWGQGTQLTVSS” here?
Answer: high polyreactivity

Question: For “QVQLVESGGGLVQAGGSLRLSCAASGRTFWRNAMGWYRQAPGKERELVAAISRGASTNYADSVKGRYTISRDNAKNTVYLQMNSLKPEDTAFYYCAARYYYRYNYWGQGTQVTVSS”, which “polyreactivity (PSR sort gate)” value is on record?
Answer: high polyreactivity

Question: For “QVQLVESGGGLVQAGGSLRLSCAASGRTFWRNAMGWYRQAPGKERELVAAISRGGSTKYADSVKGRFTISRDNAKNTVYLQMNSLKPEDTAVYYCAAATPGRYGYWGQGTQVTVSS”, which “polyreactivity (PSR sort gate)” value is on record?
Answer: high polyreactivity

Question: With “QVQLVESGGGLVQAGGSLRLSCAASGRTFWRYVMGWYRQAPGKERELVASITRSGGTTNYADSVKGRFTISRDIAKNTVYLQMNSLKPEDTAVYYCNARTVYSWSREYNYWGQGTQVTVSS” as the sequence, how does the “polyreactivity (PSR sort gate)” value read?
Answer: high polyreactivity

Question: With “QVQLVESGGGLVQAGGSLRLSCAASGRTFWSYAMGWYRQAPGKERELVAAINSGGSTYYADSVKGRFTISRDNAKNTVYLQMNSLKPEDTAVYYFAADTWYGFDWGQGTQVTVSS” as the sequence, how does the “polyreactivity (PSR sort gate)” value read?
Answer: high polyreactivity

Question: With “QVQLVESGGGLVQAGGSLRLSCAASGRTFWTYAMGWYRQAPGKERELVASISKSGGSTYADSVKGRFTISRDNAKNTVYLQMNSLKPEDTAVYVCAAYPYFSKGWGWYPYDYWGQGTQVTVSS” as the sequence, how does the “polyreactivity (PSR sort gate)” value read?
Answer: low polyreactivity

Question: With “QVQLVESGGGLVQAGGSLRLSCAASGRTFWVYAMGWYRQAPGKERELVAAINTGGSTTYADSVKGRFTISRDNAKNTVYLQMNSLKPEDTAVYYCAADTWWYGKYDYWGQGTQVTVSS” as the sequence, how does the “polyreactivity (PSR sort gate)” value read?
Answer: low polyreactivity
